± gives the uncertainty stated by the source.
Assay: self-splicing fitness, log relative to wild type (ln ratio); higher = more splicing; Tetrahymena group I intron in knt gene, E. coli kanamycin selection, DiMSum; sequences stand for … in CUCUCU…GGAGGGAAAAGUUAUCAGGCAUGCACCUGGUAGCUAGUCUUUAAACCAAUAGAUUGCAUCGGUUUAAAAGGCAAGACCGUCAAAUUGCGGGAAAGGGGUCAACAGCCGUUCAGUACCAAGUCUCAGGGGAAACUUUGAGAUGGCCUUGCAAAGGGUAUGGUAAUAAGCUGACGGACAUGGUCCUAACCACGCAGCCAAGUCCUAAGUCAACAGAUCUUCUGUUGAUAUGGAUGCAGUUCACAGACUAAAUGUCGGUCGGGGAAGAUGUAUUCUUCUCAUAAGAUAUAGUCGGACCUCUCCUUAAUGGGAGCUAGCGGAUGAAGUGAUGCAACACUGGAGCCGCUGGGAACUAAUUUGUAUGCGAAAGUAUAUUGAUUAGUUUUGGAGUACUCGUGGUCG
Outline: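 Library with all eight P1ex-region intron nucleotides randomised, intron inside the knt kanamycin-resistance gene on pET-22b(+), in E. coli BL21(DE3). Cells grew overnight at 37°C or 30°C on LB agar with or without 25 μg/mL kanamycin (plus 100 μg/mL carbenicillin, 50 μM IPTG, 0.2% rhamnose), in six replicate transformations. Pooled colonies were amplicon-sequenced on Illumina HiSeq 2500. DiMSum fitness is the error-weighted combination of wild-type-normalised replicate fold changes, kanamycin versus none.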

Sequence	self-splicing fitness (ln) (30 °C)	self-splicing fitness (ln) (37 °C)
AACUAGCAAUAUUACGGAAU	-2.42 ± 0.1	-1.83 ± 0.14
GGGUAGCAAUAUUACGCAAG	-1.59 ± 0.11	-0.847 ± 0.16
GAUGAGCAAUAUUACGCAGG		-2.24 ± 0.43
AUUGAGCAAUAUUACGUCUA	-2.12 ± 0.17	-1.77 ± 0.21
UACCAGCAAUAUUACGUUGC	-4.31 ± 0.32	-2.6 ± 0.25
CCAUAGCAAUAUUACGAUGA	-0.628 ± 0.092	-0.23 ± 0.1
GAACAGCAAUAUUACGGAGC	-1.93 ± 0.057	-1.13 ± 0.083
CGGGAGCAAUAUUACGUGUU	-5.29 ± 0.38	-2.2 ± 0.25
AACUAGCAAUAUUACGGACC	-0.676 ± 0.071	-0.0449 ± 0.11
GCAAAGCAAUAUUACGCACA	-0.917 ± 0.12	-0.182 ± 0.14
GAGCAGCAAUAUUACGCAAG	-1.36 ± 0.16	-0.218 ± 0.3
UUUGAGCAAUAUUACGUCGA	-2.46 ± 0.2	-0.692 ± 0.24
AAGUAGCAAUAUUACGAGUG	-3.16 ± 0.18	-2.03 ± 0.19
CAAAAGCAAUAUUACGGGAU	-3.95 ± 0.19	-3.04 ± 0.22
CUCCAGCAAUAUUACGUCCA	-3.35 ± 0.39	-3.24 ± 0.33
UGUUAGCAAUAUUACGAAUA	-1.32 ± 0.14	-0.0107 ± 0.14
CAAAAGCAAUAUUACGACCC	-1.54 ± 0.15	-1.72 ± 0.32
CUGCAGCAAUAUUACGGCGG	-3.57 ± 0.25	-2.23 ± 0.28
GGGCAGCAAUAUUACGGUAU	-1.06 ± 0.081	-0.373 ± 0.13
GUGCAGCAAUAUUACGUUUC	-3.02 ± 0.11	-0.289 ± 0.11
GUAGAGCAAUAUUACGUCUG	-1.6 ± 0.15	-1.58 ± 0.21
AGAAAGCAAUAUUACGGAGA	-3 ± 0.22	-2.79 ± 0.23
ACUGAGCAAUAUUACGUGGG	-3.55 ± 0.21	-2.28 ± 0.16
GAACAGCAAUAUUACGUUGC	-3.47 ± 0.19	-3.4 ± 0.29
UAAGAGCAAUAUUACGAACA	-2.71 ± 0.42	-1.26 ± 0.27

Sequence	self-splicing fitness (ln) (30 °C)	self-splicing fitness (ln) (37 °C)
AUGCAGCAAUAUUACGCUUA	-1.26 ± 0.1	-0.294 ± 0.094
UAGAAGCAAUAUUACGCCCA	-0.128 ± 0.15	0.21 ± 0.25
CGAGAGCAAUAUUACGGACG	-1.25 ± 0.23	-0.913 ± 0.42
GACCAGCAAUAUUACGAGGU	-2.95 ± 0.12	-3.04 ± 0.2
CGCGAGCAAUAUUACGGCCU	-2.69 ± 0.26	-1.65 ± 0.22
GCAUAGCAAUAUUACGUCUG	-1.87 ± 0.068	-0.701 ± 0.072
GCAAAGCAAUAUUACGCUCU	-1.27 ± 0.075	-0.565 ± 0.097
GGCUAGCAAUAUUACGUGUC	-1.67 ± 0.18	-1.26 ± 0.23
GUGCAGCAAUAUUACGAACG	-2.4 ± 0.2	-0.213 ± 0.14
CCGGAGCAAUAUUACGCGAA	-3.59 ± 0.42	-2.41 ± 0.36
AAGGAGCAAUAUUACGUAUA	-2.76 ± 0.21	-2.85 ± 0.29
GGGGAGCAAUAUUACGUUUC	-2.65 ± 0.2	-2.64 ± 0.29
UUUAAGCAAUAUUACGACGU	-1.73 ± 0.15	-0.17 ± 0.15
GGUUAGCAAUAUUACGCUGG	-3.44 ± 0.47	-1.59 ± 0.31
AGAGAGCAAUAUUACGUCAC		-0.851 ± 0.42
CGCCAGCAAUAUUACGGGUU	-2.64 ± 0.1	-2.18 ± 0.12
ACGCAGCAAUAUUACGUGAU	-1.78 ± 0.039	-0.783 ± 0.055
AUAGAGCAAUAUUACGCGAG	-1.54 ± 0.11	-1.26 ± 0.14
UGCCAGCAAUAUUACGGUAC		-2.89 ± 0.47
CGAUAGCAAUAUUACGUCGC	-3 ± 0.15	-2.79 ± 0.21
AAUGAGCAAUAUUACGGAGG	-2.69 ± 0.33	-2.45 ± 0.38
GUCGAGCAAUAUUACGGCCC		-1.43 ± 0.4
CGUCAGCAAUAUUACGGUGA	-2.52 ± 0.11	-2.81 ± 0.16
GCACAGCAAUAUUACGUGGG	-1.53 ± 0.059	-1.47 ± 0.067
GCAGAGCAAUAUUACGACAU	-3.172 ± 0.023	-2.06 ± 0.037

Sequence	self-splicing fitness (ln) (30 °C)	self-splicing fitness (ln) (37 °C)
AUUUAGCAAUAUUACGGAAA	-2.75 ± 0.29	-1.47 ± 0.21
ACCCAGCAAUAUUACGACGG	-1.39 ± 0.078	-0.9 ± 0.086
ACAGAGCAAUAUUACGGGAU	-3.52 ± 0.11	-3.03 ± 0.15
GCCAAGCAAUAUUACGUUAC	-2.55 ± 0.12	-2.39 ± 0.18
CGUGAGCAAUAUUACGGCGG	0.333 ± 0.089	0.466 ± 0.11
GAGCAGCAAUAUUACGCGAA	-3.01 ± 0.25	-1.27 ± 0.15
UCCUAGCAAUAUUACGGACA	-2.68 ± 0.37	-2.29 ± 0.31
AAGCAGCAAUAUUACGUGGA	-3.63 ± 0.21	-1.44 ± 0.11
GUACAGCAAUAUUACGUCUU	-0.533 ± 0.079	0.628 ± 0.092
AGUCAGCAAUAUUACGCGAU	-3.56 ± 0.24	-1.01 ± 0.14
AUUGAGCAAUAUUACGUCGU	-1.59 ± 0.15	-1.69 ± 0.17
CGCAAGCAAUAUUACGAUAC	-2.51 ± 0.17	-2.58 ± 0.33
CUGUAGCAAUAUUACGGGAC	-1.04 ± 0.18	-0.365 ± 0.21
CUCGAGCAAUAUUACGGGUC	-3.33 ± 0.28	-1.77 ± 0.31
ACCCAGCAAUAUUACGUGAC	-1.07 ± 0.047	-1.25 ± 0.085
UAGCAGCAAUAUUACGUUGC	-2.57 ± 0.21	-1.91 ± 0.21
GUGGAGCAAUAUUACGAGCU	-3.17 ± 0.26	-2.01 ± 0.28
GGAAAGCAAUAUUACGUUAC	-2.63 ± 0.16	-0.204 ± 0.11
GACUAGCAAUAUUACGGCUC	0.193 ± 0.1	0.351 ± 0.12
UUAGAGCAAUAUUACGGACG	-1.73 ± 0.15	-0.509 ± 0.29
GGGGAGCAAUAUUACGUCGC		-0.104 ± 0.44
GUAGAGCAAUAUUACGGUAC	-1.54 ± 0.12	0.127 ± 0.14
GACCAGCAAUAUUACGAGCG	-2.08 ± 0.067	-0.434 ± 0.077
GUAAAGCAAUAUUACGACUG	-2.11 ± 0.2	-1.48 ± 0.28
AGACAGCAAUAUUACGUCAC	-3 ± 0.23	-3.41 ± 0.19

Sequence	self-splicing fitness (ln) (30 °C)	self-splicing fitness (ln) (37 °C)
UUGAAGCAAUAUUACGGCCG	0.53 ± 0.14	0.318 ± 0.22
UUCGAGCAAUAUUACGCAUA	-3.18 ± 0.42	-1.39 ± 0.26
CCUCAGCAAUAUUACGCAGG	-3.84 ± 0.25	-2.5 ± 0.3
GACCAGCAAUAUUACGCACG	-0.677 ± 0.067	-0.895 ± 0.095
GUUUAGCAAUAUUACGACAU	-0.224 ± 0.014	0.063 ± 0.033
CCUCAGCAAUAUUACGACUA	-3.2 ± 0.43	-3.06 ± 0.32
GUCAAGCAAUAUUACGGGGA		-2.77 ± 0.44
CUAAAGCAAUAUUACGGAGC	-3.27 ± 0.31	-1.2 ± 0.29
UGAGAGCAAUAUUACGUUCG	-2.08 ± 0.13	-1.3 ± 0.15
AUGGAGCAAUAUUACGAGGG	-3.96 ± 0.35	-2.55 ± 0.42
UAAAAGCAAUAUUACGAGAG	-3.35 ± 0.19	-1.6 ± 0.13
GUAGAGCAAUAUUACGACGU	-0.438 ± 0.16	0.352 ± 0.16
AUCAAGCAAUAUUACGGUUC	-3.53 ± 0.24	-2.01 ± 0.13
CCUUAGCAAUAUUACGUUAU	-2.42 ± 0.14	-2.45 ± 0.28
GUGAAGCAAUAUUACGUACU	-1.14 ± 0.055	-0.0726 ± 0.07
CUUCAGCAAUAUUACGAGUU	-3.14 ± 0.2	-2.03 ± 0.2
CCCCAGCAAUAUUACGUCUG	-3.45 ± 0.16	-2.04 ± 0.14
ACGCAGCAAUAUUACGCACA	-0.862 ± 0.11	-0.0125 ± 0.12
UCCUAGCAAUAUUACGGCUA		-2.35 ± 0.27
CGACAGCAAUAUUACGGACC	-2.09 ± 0.083	-0.0291 ± 0.11
GCUAAGCAAUAUUACGGCUA	-0.811 ± 0.093	-0.399 ± 0.11
AUAGAGCAAUAUUACGGAGA	-1.97 ± 0.26	-2.31 ± 0.39
